What is called koff is a measure of how fast the partners let go of each other. The kon is the second-order rate constant of association.

Common to all, as to conditions: both partners purified
Assay [1] concerns the target T1, α-synuclein amyloid fibrils (unlabeled) (UniProt P37840 1-140). In words: microfluidic diffusional sizing; kinetics in free solution, 1 μM GFP-αB-c with 10 μM α-syn fibrils, 20 °C, PBS pH 7.2, 0.1 % NaN3; apparent constants, KD from koff/kon.
For assay [2], the target named is T1, α-synuclein amyloid fibrils (unlabeled). As to the kind of experiment: microfluidic diffusional sizing; dissociation of bound αB-c followed in a saturated α-syn fibril solution at 7 °C.
The target is the same in assay [3]. In words: microfluidic diffusional sizing; equilibrium titration, 1 to 100 μM α-syn fibrils with 1 μM αB-c, 25 °C, 3 d, PBS pH 7.2, 0.1 % NaN3; noncooperative single-site model, binding-site ratio 1:5.4 fixed; apparent.
For assay [4] the target is unchanged. In words: microfluidic diffusional sizing; kinetics in free solution, 1 μM GFP-αB-c with 10 μM α-syn fibrils, 25 °C, PBS pH 7.2, 0.1 % NaN3; aliquots over 50 to 150 h; second-order rate equation; apparent constants, KD from koff/kon, per monomer equivalent of αB-c.
Assay [5] has the same target. As to the kind of experiment: microfluidic diffusional sizing; global analysis of the kinetics at 7, 10, 17, 20, 25, 30 and 37 °C: binding-site concentration fitted globally; nonlinear van't Hoff analysis of KD,app, reference temperature 310 K (37 °C value not used).
Assay [6] shares this target. In words: microfluidic diffusional sizing; kinetics in free solution, 1 μM GFP-αB-c with 10 μM α-syn fibrils, 7 °C, PBS pH 7.2, 0.1 % NaN3; koff calculated from the association kinetics.

B1: GFP-labeled αB-crystallin (αB-c-TEV site-GFP-His tag) (natural protein)
chain: MDIAIHHPWIRRPFFPFHSPSRLFDQFFGEHLLESDLFPTSTSLSPFYLRPPSFLRAPSWFDTGLSEMRLEKDRFSVNLDVKHFSPEELKVKVLGDVIEVHGKHEERQDEHGFISREFHRKYRIPADVDPLTITSSLSSDGVLTVNGPRKQVSGPERTIPITREEKPAVTAAPKK
notes: αB-crystallin, small heat-shock protein; Arrangement as printed: αB-c-TEV site-GFP-His tag; a TEV site lies between αB-c and GFP; Present as a polydisperse ensemble of oligomers; concentrations are in monomer equivalents; also called αB-c-GFP; small heat-shock protein αB-crystallin; not shown: GFP, C-terminal, kept
In the case of B1, the Kd worked out at 4100 ± 1700 nM in assay [1], 261 ± 76 nM in assay [3] and 373 ± 238 nM in assay [4]. In addition, the koff was 5.6e-05 s⁻¹ in assay [2], 2.7e-06 s⁻¹ in assay [4] and 2.6e-05 s⁻¹ in assay [6]. In assay [4], the kon came out at 7.1 ± 2.6 M⁻¹ s⁻¹. In assay [5], the dH was determined as 443 ± 107 kJ⋅mol^−1. The “stoichiometry N” value in assay [5] was 5.4 α-syn equivalents per αB-c equivalent.

The record behind these values is publication PMC8463877, “The binding of the small heat-shock protein αB-crystallin to fibrils of α-synuclein is driven by entropic forces” (Proceedings of the National Academy of Sciences of the …, 2021).
